B1: FapC from the P. aeruginosa PAO1 strain with a C-terminal histidine tag (natural protein)
chain: MGNEGGWHPPKPNPQSNNKGGATALVVDTQQNYNNKVSNFGTLNNASVSGSIKDASGNVGVNVAAGDNNQQANAAALASADASFVFGTATASTSVLQSGYGNTLNNYSNPNTASLSNSANNVSGNLGVNVAAGNFNQQKNDLAAAVSNGQYSTAGSAASQTSTGNTTVNSANYAYGGTYVSLKLNADGSYKGTSDQIGDVYLDTWEGQTHPGGSNTGHIDVDSQAQGAKDLNHDGGAFAFKEKGDVDLKGTVSGFIPAIVGFKTPVTNNASLSNSLQNVSGNVGVNIAAGGGNQQSNSLSIAAGCSSCPAGGESLGF
notes: Used as fresh monomers, as fibrils and as sonicated fibril seeds; also called FapC-CterHis; histidine-tagged FapC; source: E. coli BL-21, purified (HisPur cobalt resin, lysis in 6 M guanidinium HCl)
B2: FapC (C-terminal histidine tag) labeled with Cyanine5 (natural protein)
chain: B1 chain
modifications: Cyanine5 attached by NHS ester to lysine residues (primary amines)
notes: FapC, Pseudomonas aeruginosa PAO1, UniProt Q9I2F0, without its signal peptide; same chain as m2; also called FapC labeled with Cyanine5; labeled FapC; source: E. coli BL-21, labeled on HisPur cobalt resin with Cyanine5 NHS ester, eluted and desalted
B3: histidine-tagged CsgB of E. coli (natural protein, E. coli K12, UniProt P0ABK7 22-151, looked up)
chain: AGYDLANSEYNFAVNELSKSSFNQAAIIGQAGTNNSAQLRQGGSKLLAVVAQEGSSNRAKIDQTGDYNLAYIDQAGSANDASISQGAYGNTAMIIQKGSGNKANITQYGTQKTAIVVQRQSQMAIRVTQR
notes: CsgB (curli minor subunit), E. coli K12, UniProt P0ABK7; Expressed from a pET11a plasmid; the construct is not described further; source: E. coli BL21-DE3 slyD KO, purified (nickel-nitrilotriacetic acid beads, from 7.5 M guanidine hydrochloride)
B4: FapB from the P. aeruginosa PAO1 strain with an N-terminal histidine tag (natural protein)
chain: DPLASRNRASIDDSGTYRGNFALNQAAGDAQQQSNVRVVAVGSAALVGSDQRQHLQLDASQPIAASASISGAALRGSGILGVNQGAGLGNQQINAFRLSLSNGPESLDDSVLAQSVALTKVSGSATPVPGGRSVSTDDRAFAGSSGVVQVNQSAGVGNQSMNTLSVRVME
notes: FapB, Pseudomonas aeruginosa PAO1, UniProt Q9I2E9; Used as fresh monomers, as fibrils and as sonicated fibril seeds; also called FapB-NterHis; histidine-tagged FapB; source: E. coli BL-21, purified (HisPur cobalt resin, lysis in 6 M guanidinium HCl)
B5: FapC from the P. aeruginosa PAO1 strain with an N-terminal histidine tag (natural protein)
chain: GNEGGWHPPKPNPQSNNKGGATALVVDTQQNYNNKVSNFGTLNNASVSGSIKDASGNVGVNVAAGDNNQQANAAALASADASFVFGTATASTSVLQSGYGNTLNNYSNPNTASLSNSANNVSGNLGVNVAAGNFNQQKNDLAAAVSNGQYSTAGSAASQTSTGNTTVNSANYAYGGTYVSLKLNADGSYKGTSDQIGDVYLDTWEGQTHPGGSNTGHIDVDSQAQGAKDLNHDGGAFAFKEKGDVDLKGTVSGFIPAIVGFKTPVTNNASLSNSLQNVSGNVGVNIAAGGGNQQSNSLSIAAGCSSCPAGGESLGF
notes: FapC, Pseudomonas aeruginosa PAO1, UniProt Q9I2F0; cloned into pET28b with the histidine tag at the N-terminal site; This construct probably holds the same stretch without the signal peptide; also called FapC with histidine tag at the N-terminus; source: E. coli BL-21, purified (HisPur cobalt resin, lysis in 6 M guanidinium HCl); not shown: His tag, N-terminal, kept
B6: FapB (N-terminal histidine tag) labeled with Cyanine3 (natural protein)
chain: B4 chain
modifications: Cyanine3 attached by NHS ester to lysine residues (primary amines)
notes: FapB, Pseudomonas aeruginosa PAO1, UniProt Q9I2E9, 170 residues without the signal peptide; same chain as m1; also called FapB labeled with Cyanine3; labeled FapB; source: E. coli BL-21, labeled on HisPur cobalt resin with Cyanine3 NHS ester, eluted and desalted

How the values were obtained:
[1] = biological target: B4; experiment: cell-based or functional assay
[2] = biological target: the molecule itself; experiment: thioflavin T fibrillation kinetics + transmission electron microscopy; each protein alone, 25, 50 or 100 uM, universal buffer (Tris, Bis-Tris, sodium acetate) pH 4-9, 20 uM ThT, 37 °C, orbital shaking 300 rpm; fibrils seen by TEM after 80 h; self-assembly into amyloid fibrils
[3] = biological target: the molecule itself; experiment: transmission electron microscopy of fibrils; fluorophore-labeled FapB and FapC, negative staining with 1% uranyl acetate
[4] = biological target: the molecule itself; experiment: fibril formation, pelleting and formic acid dissolution with SDS-PAGE; 30 uM protein, 37 °C, 48 h, incubated individually; fibrils washed by centrifugation at 13,000g, sonicated and treated with formic acid
[5] = biological target: B2; experiment: fluorescence microscopy of labeled purified proteins (colocalisation of monomers with preformed fibrils); Cyanine3-FapB and Cyanine5-FapC; monomers (0 h incubation) mixed with preformed fibrils (72 h incubation) of the other protein; imaged immediately after mixing and after 24 h; Leica DMI8, 20x; details: both partners purified

Binder | binding result [2] | binding result [3] | also measured
B1 | binds |  | residual FapB monomer on SDS-PAGE after 9 days of coincubation 1:1 with FapC at pH 5, without formic acid, relative to untreated monomers (9% for FapB alone) [1]: 52%
B2 |  | binds | 
B3 |  |  | binding result [4]: binds
B4 | binds |  | 
B5 | binds |  | 
B6 |  | binds | binding result [5]: binds

From paper PMC11787515, “Resilience and charge-dependent fibrillation of functional amyloid: Interactions of Pseudomonas biofilm-associated FapB and FapC amyloids” (The Journal of Biological Chemistry, 2024)
